Laboratory results as given in US10941208B2, “Anti-MUC16 antibodies” (Regeneron Pharmaceuticals, Inc., priority 2016, dated 2021).
Changes are numbered by the printed parent chain.

B1: H1M9528N: anti-MUC16 hybridoma antibody, mIgG1; HCVR/LCVR SEQ ID NOs: 234/242 (antibody, V domains shown)
VH: QMQLQESGPGLVKPSETLSLTCTVSGGSISSYYWNWIRQPPGKGLEWIGYIYYSGNNFNPSLKSRVTISVDTSKNQFSLKLSSVTAADTAVYYCARAFHWNYEFDYWGQGTLVTVSS
VL: EIVLTQSPGTLSLSPGERATLSCRASQSVSNNYLAWYQQKPGQAPRLLLYGASSRTTDIPDRFSGSGSGTDFTLTISRLEPEDFAVYYCQQYDNSPLTFGGGTKVEIR
B2: H3M9529N: anti-MUC16 hybridoma antibody, mIgG3; HCVR/LCVR SEQ ID NOs: 378/386 (antibody, V domains shown)
VH: QVQLQQWGAGLLKPSETLSLTCAVYGGSFSGFYWSWIRQPPGKGLEWIGEINHSGSAKYNPSLKNRVIISIDTSKNQFSLKLDSVTAADTAVYNCARQGWNFAIFDYWGQGTLVDVSS
VL: DIVMTQSPDSLAVSLGGRATINCKSSQSVLHSSYNKDHLAWYQQRPGQPPKLLIYWASTRESGVPDRFSGSGSGTDFTLTISSLQAEDVAVYYCQQYNILPPTFGQGTRVEIK
B3: H2M7135N: anti-MUC16 hybridoma antibody, mIgG2; HCVR/LCVR SEQ ID NOs: 298/306 (antibody, V domains shown)
VH: EVQLVESGGGLVQAGGSLRLSCAASGFTFSYHEMNWVRQAPGKGLEWVSYIGSRGTTKHYADPVKGRFTISRDNAKNSLYLQMNSLRAEDTAVYYCASEVGSILGYSMDVWGQGTTVTVSS
VL: DIQMTQSPSSLSASVGDRVTITCRASQSVSRYLNWCQQKPGKAPKLLTYAASSLQSGVPSRFSGSGSGTDFTLTISSLQPEDFAAYFCQQSYSTPPITFGQGTRLEIK
B4: H1H8808P: anti-MUC16 antibody, human IgG1 Fc; HCVR/LCVR SEQ ID NOs: 130/138 (antibody, V domains shown)
VH: QVQLVESGGGVVQPGRSLRLSCVASGFTFSNYGIHWVRQAPGKGLEWVAVISDDGSFKFYADSVKGRFTISRDNSKNTLYLQMNSLRVEDSAVYHCAKWQHNWNDGGFDYWGQGTLVTVSS
VL: EIVLTQSPDTLSLSPGERATLSCRASQSLSSNYLAWYRQKPGQAPRLLIYGISSRATGIPDRFSGSGSGTDFTLTISRLEPEDFAVYYCQQYGSSPWTFGQGTKVEIK
B5: H1H8755P: anti-MUC16 antibody, human IgG1 Fc; HCVR/LCVR SEQ ID NOs: 2/10 (antibody, V domains shown)
VH: EVQLVESGGGLVQPGRSLRLSCAASGFTFNDYAMHWVRQSPGKGLEWVSGIDWNGGSIDYADSVKGRFTISRDTAKNSLYLQMNSLKVEDTALYYCAKDIGHWNYIGGMDVWGQGTTVTVSS
VL: DIQMTQSPSSLSASVGDRVTITCRASQSINIYLNWYQQKPGKAPKFLIYAASSLQTGVPSRFSGSGSGTDFTLTISSLEPEDFATYYCQHSYSTPPITFGQGTRLEIK
B6: H1H8770P: anti-MUC16 antibody, human IgG1 Fc; HCVR/LCVR SEQ ID NOs: 34/42 (antibody, V domains shown)
VH: QVQLVESGGGVVQPGRSLRLSCAASGFTFSDHGMHWVRQAPGKGLEWVAVISYHGSNKHYADSVKGRFTISRDNSKNALYLQMNSLRPEDTAMYYCAKDGYDFWNGYSLFDYWGQGTLVTVSS
VL: B5 VL with N30S, I31N, F46L, A50T, S53N, Q55L, T56S, E79Q, H90Q, R104K
B7: H1H8783P: anti-MUC16 antibody, human IgG1 Fc; HCVR/LCVR SEQ ID NOs: 50/58 (antibody, V domains shown)
VH: B6 VH with G33A, S56T, N57D, H59Q, A61G, G106A
VL: B5 VL with N30S, I31N, F46L, A50T, Q55L, T56S, E79Q, H90Q

Experiments:
[1] = target: T1, hMUC16 endogenously expressed on OVCAR-3 cell line (Homo sapiens, UniProt Q8WXI7); test: Electrochemiluminescence (MSD) cell binding, OVCAR-3 vs SK-OV-3; conditions: cell-based binding assay
T1 construct: OVCAR-3 cells endogenously express MUC-16; endogenous in cells; host or cells: OVCAR-3 (also luciferase-transduced OVCAR3-Luc)
Description: The ability of anti-MUC16 antibodies to bind specifically to endogenously expressing MUC16 on the human ovarian carcinoma cell line (OVCAR-3) was evaluated via an electrochemiluminescence based detection assay (Meso Scale Discovery (MSD), Rockville, Md.). […] Detached cells were then washed once in 1×PBS supplemented with Ca^2+/Mg^2+ and counted (Cellometer Auto T4 cell counter, Nexcelom Bioscience, Lawrence, Mass.). Approximately 1.0×10^4 cells were plated in MULTI-ARRAY 96-well carbon electrode plates (MSD) and incubated for 1 h at 37° C. […] Next, serial dilutions of anti-MUC16 or control antibodies (0.85 pM-50 nM) and no-antibody buffer controls were added to the plate-bound cells and incubated for 1 h at room temperature (RT). […] Plate-bound antibodies were detected with a SULFO-TAG™-conjugated anti-human kappa light chain antibody (Regeneron) or a SULFO-TAG™-conjugated anti-mouse IgG antibody (Jackson Immunoresearch, West Grove, Pa.) for 1 h at RT. Post-wash, plates were developed with Read Buffer (MSD) according to manufacturer's protocol and luminescent signals were recorded with a SECTOR Imager 6000 (MSD) instrument.
Luminescence intensity, measured in relative light units (RLU), for the two cell lines was recorded to indicate the binding intensity of each antibody.

[2] = target: T2, soluble monomeric human MUC16 (hMUC16.mmh, last five SEA domains, SEQ ID: 1902) (Homo sapiens, UniProt Q8WXI7); test: Surface plasmon resonance (BIACORE) binding to hMUC16 fragment at 25° C.; parameters: key to ka / kd / KD / t 1/2: NB: No binding; conditions: for KD / ka / kd / t 1/2: 25° C.; for binding to soluble truncated human MUC16 protein via surface plasmon resonance (in words): truncated format encompassing the last five SEA domains
T2 construct: mmh (myc-myc-hexahistidine)
Description: Antibodies were captured onto a CM4 or CM5 BIACORE sensor surface (GE Healthcare Life Sciences) derivatized via amine coupling with a monoclonal anti-human Fc antibody (GE, # BR-1008-39) or a monoclonal goat anti-mouse Fc antibody (GE, # BR-1008-38). Various concentrations of soluble monomeric human MUC16, in a truncated format encompassing the last five SEA domains of Mucin-16 (hMUC16.mmh, or MUC16 “nub”, SEQ ID: 1902) were injected over the anti-MUC16-antibody captured surface at a flow rate of 50 uL/minute (BIACORE T 200) or 30 uL/minute (BIACORE 4000). Antibody-reagent association was monitored for 4 min and the dissociation was monitored for 6-10 min. All binding studies were performed in HBS-ET buffer (0.01M HEPES pH 7.4, 0.15M NaCl, 0.05% v/v Surfactant P20).
Kinetic association (ka) and dissociation (kd) rate constants were determined by fitting the real-time sensorgrams to a 1:1 binding model using Scrubber 2.0c curve fitting software. Binding dissociation equilibrium constants (KD) and dissociative half-lives (t½) were calculated from the kinetic rate constants as: […]

[3] = Hybridoma anti-MUC16 antibodies (H1M, H2M, H3M), Table 5A
[4] = Human Fc anti-MUC16 antibodies (H1H), Table 5B

T2 sequence (Q8WXI7 with tags, fused parts or gaps): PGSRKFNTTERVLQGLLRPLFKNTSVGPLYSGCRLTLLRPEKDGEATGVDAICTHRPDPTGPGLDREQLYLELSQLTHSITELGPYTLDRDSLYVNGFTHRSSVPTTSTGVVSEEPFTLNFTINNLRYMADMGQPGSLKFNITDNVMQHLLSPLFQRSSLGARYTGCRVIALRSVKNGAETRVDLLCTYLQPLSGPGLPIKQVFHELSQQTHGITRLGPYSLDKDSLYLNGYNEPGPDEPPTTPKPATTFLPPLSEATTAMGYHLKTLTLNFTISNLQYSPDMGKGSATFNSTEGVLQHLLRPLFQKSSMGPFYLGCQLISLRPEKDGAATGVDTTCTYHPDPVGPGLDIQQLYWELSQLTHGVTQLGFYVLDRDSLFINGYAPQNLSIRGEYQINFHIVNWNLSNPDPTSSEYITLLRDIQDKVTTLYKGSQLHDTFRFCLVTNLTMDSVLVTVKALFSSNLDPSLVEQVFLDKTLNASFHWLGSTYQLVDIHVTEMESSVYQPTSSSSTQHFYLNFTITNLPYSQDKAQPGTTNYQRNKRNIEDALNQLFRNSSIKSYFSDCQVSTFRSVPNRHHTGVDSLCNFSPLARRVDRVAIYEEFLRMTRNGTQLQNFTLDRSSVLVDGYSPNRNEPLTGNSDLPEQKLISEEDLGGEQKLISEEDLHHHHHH

| Molecule | specific binding to endogenous human MUC16 expressed on OVCAR-3 cells (in words) [1] | KD [2, 3] | ka [2, 3] | kd [2, 3] | t 1/2 [2, 3] | binding to soluble truncated human MUC16 protein via surface plasmon resonance (in words) [2] | ka [2, 4] [M⁻¹ s⁻¹] | kd [2, 4] [s⁻¹] |
| --- | --- | --- | --- | --- | --- | --- | --- | --- |
| B1 | specific binding | NB | NB | NB | NB | no binding | – | – |
| B2 | specific binding | NB | NB | NB | NB | no binding | – | – |
| B3 | – | – | 51000 M⁻¹ s⁻¹ | 0.000218 s⁻¹ | – | – | – | – |
| B4 | – | – | – | – | – | – | 4120 | 0.000216 |
| B5 | – | – | – | – | – | – | 522000 | 0.000149 |
| B6 | – | – | – | – | – | – | 247000 | 0.000308 |
| B7 | – | – | – | – | – | – | 174000 | 0.000107 |
